From publication PMC2791442 come the findings set out here.

Test in all cases: EMSA
Common to all, as to conditions: EMSA: 200 ng protein, 5 ng 3'-biotin-labeled promoter DNA, 6% DNA retardation gel, 100 V at 4 C; binding buffer, salt and pH not stated
(In EMSA bound probe runs differently from free probe, usually more slowly.)

The target in series [1] is T1, MqsA-F (Escherichia coli) (UniProt Q46864).
T1 sequence: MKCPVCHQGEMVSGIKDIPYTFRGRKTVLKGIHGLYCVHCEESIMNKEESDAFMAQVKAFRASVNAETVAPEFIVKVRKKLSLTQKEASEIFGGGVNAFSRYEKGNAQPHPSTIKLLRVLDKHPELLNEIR

For series [2], the target named is T2, MqsA-N (Escherichia coli) (UniProt Q46864).
T2 sequence: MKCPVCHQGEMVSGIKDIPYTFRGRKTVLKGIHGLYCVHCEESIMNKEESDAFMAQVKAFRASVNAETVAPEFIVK

Series [3] concerns the target T3, MqsA-C (Escherichia coli) (UniProt Q46864).
T3 sequence: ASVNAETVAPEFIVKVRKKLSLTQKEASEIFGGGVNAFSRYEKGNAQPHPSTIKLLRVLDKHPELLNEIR

Series [4] addresses MqsR;MqsA-F (Escherichia coli;Escherichia coli) (UniProt Q46865+Q46864).
Series [5] deals with MqsR;MqsA-N (Escherichia coli;Escherichia coli) (UniProt Q46865+Q46864).
Chain of MqsR;MqsA-N (Escherichia coli;Escherichia coli) (Q46865 whole entry, one chain of several): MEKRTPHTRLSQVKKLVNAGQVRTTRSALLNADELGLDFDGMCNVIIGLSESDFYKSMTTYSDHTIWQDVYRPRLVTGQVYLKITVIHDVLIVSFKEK

Chain of MqsR;MqsA-F (Escherichia coli;Escherichia coli) (Q46865 whole entry, one chain of several): as above

Turning to “CAGTCATCCGGTATAGTTCTTCATAATCTCTGCAAAATCATCGTGTTGTAATATTCTCTCATCACTCTCCATCAAATTTTCTTTTTTTCTCCATAATTGGCGCAAAAGTGTTTTTTACACTTTCATTGTTTTACCGTTGCTCTGATTAATTGACGCTAAAGTCAGTAAAGTTAATCTCGTCAACACGGCACGCTACTTAAGAAAGCCGTAATAAATAACTGAAAGGAAGGATATAGAATATGCGTAAATTAACTGCACTGTTTGTTGCC (double strand) [Pspy]”, the binding result in series [1] is recorded as “binds”.
With “CGTGTATGTGGTGTGCGTTTTTCCATAACCCCCGCCTCCCTGTTACTTTAGTTATAACCTAAAAGGTTAATTACAGCAATGAAAAAGCACCTAAAAGGTTAGTTAGATGTACGGAGATAGTGACCACACAAAACGTATTCTTTAAGGAAAGTGATTGACCATATAAGAAAGTGGCGCATTAGTAGCGCCAGTTTGAAGCAGGAATTTATAAGGGAAGCTGGAGTCAGGCATCAC (double strand) [PmqsR]”, the binding entry in series [2] is recorded as “no binding”; in series [1], “binds”; in series [3], “binds”; in series [4] it was “binds”; in series [5], “no binding”.
In the case of “CGGGTTAGTGCTAGTATGAAAAAGTGAGTCCTGTCCCGCTTCCTTCCTAATTGTAATTTTTCGTAATAATGCGATGAAAACCTGCAAAGAGTGGCTTATAGTTAAGCTAACAAACGAGAGGGCAAGTCCAGGTCAGTAAGTTTTTTCCATCCCGAAAGGTGTCCGTTAGTTCAACCGCTAAGAAGGGGACGCGTTATGGATGAATACTCACCCAAAAGACATGATATCGCACAGCTTAAGT (double strand) [PtomB]”, the binding entry in series [1] and in series [4] was “no binding” throughout.
On to “CCTGCAGAGTCAAACTGACATGTTTCATTTTTCCCGTTCCAGGCATTTTAATTCCTTCGCGTGTTTTCTGTCCAACCCTGCCTGCATGGCAGAAGGAATTCACCTGGTGTATTAAAGTGAATAATCATAAACCACTCACCTTTGTTGTTATTAGCAGCAGAACAATGATGTGGTTAGTTAATTAAAGCTGAAAATAAGCTTTTTGCCTGGATTTTTATGGCGGCTTACGCCGCCGTTGAAACTTTAATCATCACCCGCCACGCGGATCACCACTTTGC (double strand) [PmcbR]”, for which the binding result in series [1] was “binds”.
